The source of these data is patent publication US20140045930A1, “ASSAY FOR ARGINYL HYDROXYLASE ACTIVITY” (priority 2011, published 2014).

This assay has as its target His-tagged L16 protein (recombinant, produced in YcfD knock out strain JW1114) (E. coli) (UniProt A7ZSK2). The assay can be described thus: cell-based or functional assay.

Turning to “YcfD ectopically expressed in the deletion strain JW1114 (co-expressed with L16 from pETDuet-1) (from UniProt P27431 1-373) (enzyme)”, the hydroxylation of R-81 in L16 in vivo (MS); unmodified peptide detected (% unmodified peptide) was less than 1.
